Measurements reported in patent US20220204643A1 (published 2022).
Values belong to the binder of their own block, whether it stands above or below them.

Key:
Assay in all cases: protein array
ubiquilin 2 = molecular target: T1, ubiquilin 2 (human, UniProt Q9UHD9 2-624)
T1 construct: on protein array; also called UBQLN2

[1] = molecular target: T2, ubiquilin 1, transcript variant 2 (human, UniProt Q9UMX0 2-589)
T2 construct: on protein array; also called UBQLN1

Ubiquilin 3 = molecular target: T3, Ubiquilin 3 (human, UniProt Q9H347 1-655)
T3 construct: on protein array; also called UBQLN3
T3 sequence: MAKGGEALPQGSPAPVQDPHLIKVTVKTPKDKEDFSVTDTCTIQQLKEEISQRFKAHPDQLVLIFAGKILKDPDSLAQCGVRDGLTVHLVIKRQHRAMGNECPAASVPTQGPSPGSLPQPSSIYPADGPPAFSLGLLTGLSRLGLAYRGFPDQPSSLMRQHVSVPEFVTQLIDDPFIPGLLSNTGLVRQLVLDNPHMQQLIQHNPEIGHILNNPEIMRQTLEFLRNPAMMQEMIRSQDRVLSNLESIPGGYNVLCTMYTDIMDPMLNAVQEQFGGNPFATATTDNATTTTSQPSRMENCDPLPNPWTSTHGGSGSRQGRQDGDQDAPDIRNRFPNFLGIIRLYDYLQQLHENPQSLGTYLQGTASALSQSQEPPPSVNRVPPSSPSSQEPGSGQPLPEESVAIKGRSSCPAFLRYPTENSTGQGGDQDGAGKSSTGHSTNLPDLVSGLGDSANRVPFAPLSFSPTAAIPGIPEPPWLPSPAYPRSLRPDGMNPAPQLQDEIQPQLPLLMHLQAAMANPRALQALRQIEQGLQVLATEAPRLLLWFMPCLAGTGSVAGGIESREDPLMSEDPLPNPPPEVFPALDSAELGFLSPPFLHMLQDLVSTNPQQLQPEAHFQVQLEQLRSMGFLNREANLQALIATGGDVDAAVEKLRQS

Bcl2 like 1 = molecular target: T4, Bcl2 like 1 (human, UniProt Q07817 1-233)
T4 construct: on protein array; also called BCL2L1
T4 sequence (Q07817 whole entry): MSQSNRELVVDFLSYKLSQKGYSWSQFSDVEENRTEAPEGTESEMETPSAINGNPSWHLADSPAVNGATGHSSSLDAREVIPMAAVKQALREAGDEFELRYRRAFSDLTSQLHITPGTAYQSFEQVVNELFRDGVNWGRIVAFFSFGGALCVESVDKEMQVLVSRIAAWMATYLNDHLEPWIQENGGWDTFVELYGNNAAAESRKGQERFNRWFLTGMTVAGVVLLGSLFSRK

Zinc finger protein 699 = molecular target: T5, Zinc finger protein 699 (human, UniProt Q32M78 1-642)
T5 construct: on protein array; also called ZNF699
T5 sequence (Q32M78 whole entry): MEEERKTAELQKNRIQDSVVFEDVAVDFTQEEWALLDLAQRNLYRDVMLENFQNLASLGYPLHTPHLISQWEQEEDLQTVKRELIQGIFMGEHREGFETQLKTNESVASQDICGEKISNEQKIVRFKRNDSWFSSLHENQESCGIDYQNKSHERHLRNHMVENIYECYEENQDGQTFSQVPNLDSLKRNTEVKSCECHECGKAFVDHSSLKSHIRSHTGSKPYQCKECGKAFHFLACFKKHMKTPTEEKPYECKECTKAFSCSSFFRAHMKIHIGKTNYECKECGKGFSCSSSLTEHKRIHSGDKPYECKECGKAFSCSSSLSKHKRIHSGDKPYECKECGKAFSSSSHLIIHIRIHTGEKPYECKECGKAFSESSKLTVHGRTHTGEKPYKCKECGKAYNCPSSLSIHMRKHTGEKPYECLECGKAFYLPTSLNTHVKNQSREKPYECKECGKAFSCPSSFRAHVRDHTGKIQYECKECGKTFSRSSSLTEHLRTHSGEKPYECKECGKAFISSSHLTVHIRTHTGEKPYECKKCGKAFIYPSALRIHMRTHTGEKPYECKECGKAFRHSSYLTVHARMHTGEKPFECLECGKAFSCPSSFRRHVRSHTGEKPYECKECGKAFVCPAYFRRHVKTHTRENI

[2] = molecular target: T6, zinc finger protein 431, transcript variant 2 (human, UniProt Q8TF32 1-576)
T6 construct: on protein array; also called ZNF431
T6 sequence (Q8TF32 other isoform, or with tags, fused parts or gaps mutant limits assumed): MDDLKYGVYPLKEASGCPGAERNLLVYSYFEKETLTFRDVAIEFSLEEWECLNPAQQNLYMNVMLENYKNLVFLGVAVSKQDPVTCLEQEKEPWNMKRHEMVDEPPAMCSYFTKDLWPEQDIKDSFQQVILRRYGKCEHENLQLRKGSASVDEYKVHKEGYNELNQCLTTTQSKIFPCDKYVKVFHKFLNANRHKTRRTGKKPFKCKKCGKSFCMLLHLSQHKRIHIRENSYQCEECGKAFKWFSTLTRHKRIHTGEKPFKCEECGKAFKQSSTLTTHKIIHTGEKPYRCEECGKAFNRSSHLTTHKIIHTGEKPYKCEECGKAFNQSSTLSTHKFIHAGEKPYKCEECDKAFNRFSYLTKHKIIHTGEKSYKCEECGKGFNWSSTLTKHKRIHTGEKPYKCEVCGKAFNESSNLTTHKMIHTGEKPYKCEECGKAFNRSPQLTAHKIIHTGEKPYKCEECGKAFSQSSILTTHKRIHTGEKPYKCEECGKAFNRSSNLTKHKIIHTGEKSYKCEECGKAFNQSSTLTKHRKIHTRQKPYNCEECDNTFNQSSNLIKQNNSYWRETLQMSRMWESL

nudix hydrolase 21 = molecular target: T7, nudix hydrolase 21 (human, UniProt O43809 2-227)
T7 construct: on protein array; also called NUDT21
T7 sequence (O43809 2-227 limits assumed): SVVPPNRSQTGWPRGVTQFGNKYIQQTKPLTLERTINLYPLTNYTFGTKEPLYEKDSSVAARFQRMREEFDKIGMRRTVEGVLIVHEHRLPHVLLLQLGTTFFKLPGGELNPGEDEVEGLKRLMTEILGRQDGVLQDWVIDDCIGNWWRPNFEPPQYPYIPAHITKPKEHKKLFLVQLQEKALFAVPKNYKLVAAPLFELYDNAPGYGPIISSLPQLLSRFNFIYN

[3] = molecular target: T8, Src like adaptor, transcript variant 1 (human, UniProt Q13239 2-276)
T8 construct: on protein array; also called SLA
T8 sequence: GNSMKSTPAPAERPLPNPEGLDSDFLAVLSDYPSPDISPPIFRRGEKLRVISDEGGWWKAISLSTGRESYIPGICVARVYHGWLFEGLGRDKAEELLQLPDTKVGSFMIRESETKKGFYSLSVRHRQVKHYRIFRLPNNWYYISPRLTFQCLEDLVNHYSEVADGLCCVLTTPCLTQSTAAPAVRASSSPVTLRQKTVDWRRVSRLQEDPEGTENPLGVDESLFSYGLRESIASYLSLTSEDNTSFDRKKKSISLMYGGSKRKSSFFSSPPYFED

[4] = molecular target: T9, proteasome 26S subunit, non-ATPase 4, transcript variant 2 (human, UniProt P55036 1-377)
T9 construct: on protein array; also called PSMD4
T9 sequence (P55036 whole entry, change not shown): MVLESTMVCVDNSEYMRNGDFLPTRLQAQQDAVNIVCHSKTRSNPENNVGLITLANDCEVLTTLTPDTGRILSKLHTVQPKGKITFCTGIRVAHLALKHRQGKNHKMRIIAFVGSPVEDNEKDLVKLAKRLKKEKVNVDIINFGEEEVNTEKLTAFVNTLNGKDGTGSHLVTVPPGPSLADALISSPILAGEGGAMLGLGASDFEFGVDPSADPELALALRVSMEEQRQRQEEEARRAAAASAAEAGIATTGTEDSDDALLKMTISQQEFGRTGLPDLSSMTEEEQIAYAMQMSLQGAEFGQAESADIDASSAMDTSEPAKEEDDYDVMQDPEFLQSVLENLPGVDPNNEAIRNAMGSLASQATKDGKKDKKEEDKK

[5] = molecular target: phosphodiesterase 5A, transcript variant 1 (human, UniProt O76074 1-875)
zinc finger protein 296 = molecular target: T10, zinc finger protein 296 (human, UniProt Q8WUU4 1-475)
T10 construct: on protein array; also called ZNF296
T10 sequence: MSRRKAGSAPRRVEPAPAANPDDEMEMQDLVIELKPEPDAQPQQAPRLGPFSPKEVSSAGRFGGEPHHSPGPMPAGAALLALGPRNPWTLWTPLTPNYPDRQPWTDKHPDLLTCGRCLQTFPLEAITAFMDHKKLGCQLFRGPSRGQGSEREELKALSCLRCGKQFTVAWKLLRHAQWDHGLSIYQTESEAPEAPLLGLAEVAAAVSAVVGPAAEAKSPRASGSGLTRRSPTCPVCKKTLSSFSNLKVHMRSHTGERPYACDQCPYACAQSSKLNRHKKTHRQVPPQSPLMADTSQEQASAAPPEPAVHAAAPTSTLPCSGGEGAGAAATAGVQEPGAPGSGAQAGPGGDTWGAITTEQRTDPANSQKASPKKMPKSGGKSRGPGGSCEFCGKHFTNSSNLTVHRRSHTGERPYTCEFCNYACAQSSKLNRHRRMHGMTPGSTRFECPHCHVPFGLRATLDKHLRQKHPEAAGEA

[6] = molecular target: T11, keratin associated protein 12-3 (human, UniProt P60328 1-96)
T11 construct: on protein array; also called KRTAP12-3
T11 sequence: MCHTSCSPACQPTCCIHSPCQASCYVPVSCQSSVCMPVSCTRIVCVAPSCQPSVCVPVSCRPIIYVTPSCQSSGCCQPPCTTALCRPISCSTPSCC

PAGE family member 2 = molecular target: T12, PAGE family member 2 (human, UniProt Q7Z2X7 1-111)
T12 construct: on protein array; also called PAGE2
T12 sequence: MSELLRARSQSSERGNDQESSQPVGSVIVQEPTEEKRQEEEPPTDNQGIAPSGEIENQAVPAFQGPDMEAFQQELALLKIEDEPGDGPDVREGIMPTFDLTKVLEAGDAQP

[7] = molecular target: T13, anterior gradient 3, protein disulphide isomerase family member (human, UniProt Q8TD06 22-166)
T13 construct: on protein array; also called AGR3
T13 sequence: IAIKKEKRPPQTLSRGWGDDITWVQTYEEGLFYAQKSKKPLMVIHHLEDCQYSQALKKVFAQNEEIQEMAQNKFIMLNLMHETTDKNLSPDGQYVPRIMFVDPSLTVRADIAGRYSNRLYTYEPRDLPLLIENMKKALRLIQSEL

[8] = molecular target: T14, microtubule associated scaffold protein 2, transcript variant 2 (human, UniProt Q5JR59 1040-1369)
T14 construct: on protein array; also called MTUS2
T14 sequence: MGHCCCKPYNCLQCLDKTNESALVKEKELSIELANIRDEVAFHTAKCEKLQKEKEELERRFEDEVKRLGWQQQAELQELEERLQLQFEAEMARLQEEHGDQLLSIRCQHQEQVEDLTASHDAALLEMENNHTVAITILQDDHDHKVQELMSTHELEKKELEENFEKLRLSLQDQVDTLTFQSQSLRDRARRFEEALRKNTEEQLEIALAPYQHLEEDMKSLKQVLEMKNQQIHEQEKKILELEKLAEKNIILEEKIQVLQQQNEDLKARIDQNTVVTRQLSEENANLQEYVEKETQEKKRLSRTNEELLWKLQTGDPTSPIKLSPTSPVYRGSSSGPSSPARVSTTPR

enolase 2 = molecular target: T15, enolase 2 (human, UniProt P09104 2-434)
T15 construct: on protein array; also called ENO2
T15 sequence (P09104 2-434 limits assumed): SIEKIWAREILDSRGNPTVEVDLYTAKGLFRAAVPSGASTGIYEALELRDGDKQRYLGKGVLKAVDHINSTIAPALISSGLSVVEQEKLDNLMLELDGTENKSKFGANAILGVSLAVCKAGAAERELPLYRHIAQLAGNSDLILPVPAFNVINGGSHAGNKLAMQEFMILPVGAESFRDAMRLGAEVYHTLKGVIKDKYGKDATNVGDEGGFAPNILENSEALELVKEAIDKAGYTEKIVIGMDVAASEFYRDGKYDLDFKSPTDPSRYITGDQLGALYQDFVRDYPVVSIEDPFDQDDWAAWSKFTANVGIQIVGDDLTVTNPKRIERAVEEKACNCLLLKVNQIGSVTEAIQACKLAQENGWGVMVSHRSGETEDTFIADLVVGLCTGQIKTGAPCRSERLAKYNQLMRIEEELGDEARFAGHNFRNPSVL

[9] = molecular target: T16, arginine and glutamate rich 1 (human, UniProt Q9NWB6 1-273)
T16 construct: on protein array; also called ARGLU1
T16 sequence: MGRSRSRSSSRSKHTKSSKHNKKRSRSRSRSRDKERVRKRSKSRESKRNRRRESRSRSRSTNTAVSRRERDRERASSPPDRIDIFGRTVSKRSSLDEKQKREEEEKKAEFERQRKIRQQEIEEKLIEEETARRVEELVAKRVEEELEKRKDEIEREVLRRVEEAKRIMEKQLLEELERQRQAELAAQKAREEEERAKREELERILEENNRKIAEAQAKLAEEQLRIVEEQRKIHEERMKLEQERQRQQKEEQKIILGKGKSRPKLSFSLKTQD

[10] = molecular target: T17, SAS-6 centriolar assembly protein, transcript variant 2 (human, UniProt Q6UVJ0 168-657)
T17 construct: on protein array; also called SASS6
T17 sequence: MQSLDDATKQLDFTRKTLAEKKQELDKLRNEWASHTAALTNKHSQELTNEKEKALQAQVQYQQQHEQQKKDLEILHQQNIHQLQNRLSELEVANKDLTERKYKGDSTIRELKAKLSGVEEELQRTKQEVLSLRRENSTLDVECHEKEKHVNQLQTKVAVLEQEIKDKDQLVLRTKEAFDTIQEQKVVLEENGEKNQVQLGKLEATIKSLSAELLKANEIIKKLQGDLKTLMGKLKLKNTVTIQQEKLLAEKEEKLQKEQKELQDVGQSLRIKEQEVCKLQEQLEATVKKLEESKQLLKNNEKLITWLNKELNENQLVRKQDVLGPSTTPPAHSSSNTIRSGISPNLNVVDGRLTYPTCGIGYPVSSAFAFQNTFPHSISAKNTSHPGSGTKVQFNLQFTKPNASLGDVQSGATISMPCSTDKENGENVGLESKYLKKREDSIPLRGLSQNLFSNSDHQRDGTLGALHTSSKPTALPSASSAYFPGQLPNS

T2 sequence (Q9UMX0 other isoform, or with tags, fused parts or gaps mutant limits assumed): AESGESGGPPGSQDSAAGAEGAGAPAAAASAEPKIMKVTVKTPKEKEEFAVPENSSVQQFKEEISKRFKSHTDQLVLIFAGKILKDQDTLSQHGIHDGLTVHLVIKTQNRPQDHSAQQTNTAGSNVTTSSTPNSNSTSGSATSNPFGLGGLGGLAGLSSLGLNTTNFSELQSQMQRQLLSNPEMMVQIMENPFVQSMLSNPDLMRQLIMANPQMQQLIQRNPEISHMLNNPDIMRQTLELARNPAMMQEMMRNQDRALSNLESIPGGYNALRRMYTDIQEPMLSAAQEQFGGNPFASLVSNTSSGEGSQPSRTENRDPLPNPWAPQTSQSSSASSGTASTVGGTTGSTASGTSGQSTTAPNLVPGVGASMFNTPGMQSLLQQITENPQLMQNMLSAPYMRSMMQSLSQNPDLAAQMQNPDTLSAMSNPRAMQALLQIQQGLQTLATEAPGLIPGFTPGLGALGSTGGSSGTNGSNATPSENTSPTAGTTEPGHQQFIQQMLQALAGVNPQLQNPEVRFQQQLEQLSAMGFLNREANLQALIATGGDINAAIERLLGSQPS
T1 sequence (Q9UHD9 2-624 limits assumed): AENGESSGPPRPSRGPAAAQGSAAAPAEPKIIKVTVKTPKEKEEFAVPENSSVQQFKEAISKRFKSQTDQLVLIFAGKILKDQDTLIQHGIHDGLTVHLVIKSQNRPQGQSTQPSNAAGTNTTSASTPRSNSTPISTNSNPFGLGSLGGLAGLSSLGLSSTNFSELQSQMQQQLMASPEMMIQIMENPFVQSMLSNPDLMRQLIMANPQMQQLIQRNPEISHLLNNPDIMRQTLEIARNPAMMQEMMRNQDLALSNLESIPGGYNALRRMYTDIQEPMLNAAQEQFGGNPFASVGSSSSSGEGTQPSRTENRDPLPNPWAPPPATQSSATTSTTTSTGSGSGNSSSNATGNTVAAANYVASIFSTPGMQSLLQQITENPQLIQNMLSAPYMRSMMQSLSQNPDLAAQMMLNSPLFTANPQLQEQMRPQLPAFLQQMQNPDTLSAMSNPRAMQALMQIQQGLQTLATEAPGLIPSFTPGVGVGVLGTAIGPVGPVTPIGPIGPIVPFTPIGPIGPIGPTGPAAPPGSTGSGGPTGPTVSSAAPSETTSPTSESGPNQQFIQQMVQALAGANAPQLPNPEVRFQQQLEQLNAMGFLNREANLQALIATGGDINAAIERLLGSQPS

binding result [5]: binds
binding result (zinc finger protein 296): binds
B5: TMEL1028 (antibody, V domains shown)
VH: QVQLVQSGAEVKKPGASVKVSCKASGYTFTSYGISWVRQAPGQGLEWMGWISAYNGNTNYAQKLQGRVTMTTDTSTSTAYMELRSLTSDDTAVYYCARDQGLERANWFDPWGQGTLVTVSS
VL: not shown
notes: VH/VL tied via antigen in summary, not by name in this stretch

binding result [6]: binds
binding result (PAGE family member 2): binds
B6: TMEL1035 (antibody, V domains shown)
VH: QVQLVESGGGVVQPGRSLRLSCAASGFTFSSYAMHWVRQAPGKGLEWVAVISYDGSNKYYADSVKGRFTISRDNSKNTLYLQMNSLRAEDTAVYYCASPIAVAAPFAYWGQGTLVTVSS
VL: VSSELTQDPAVSVALGQTVRITCQGDSLRSYYASWYQQKPGQAPVLVIYGKNNRPSGIPDRFSGSSSGNTASLTITGAQAEDEADYYCNSRDSSGNLYVFGTGTKVTVLG
notes: as for B5

binding result [8]: binds
B8: TMEL1027 (antibody, V domains shown)
VH: QVQLVQSGAEVKKPGASVKVSCKASGYTFTVYYMHWVRQAPGQGLEWMGRINPNSGGTNYAQKFQGRVTMTRDTSISTAYMELSRLTSDDTAVYYCARVVVVGTDYGMDVWGQGTTVTVSS
VL: VSSELTQDPAVSVALGQTVRITCQGDSLRSYYASWYQQRPGQAPVLVIYGKNNRPSGIPDRFSGSSSGNTASLTITGAQAEDEADYYCNSRDSSGNHVFGTGTKVTVLG
notes: as for B5

binding result (enolase 2): binds
B9: TMEL1037 (antibody, V domains shown)
VH: PLQLQESGPGLVKPSETLSLTCTVSGGSISSSSYYWGWIRQSPGKGLEWMGSIYYSGSTYYNPSLKSRVTISVDTSKNQFSLNLSSVTAADTAVYYCARHDYRNYFDYWGQGTLVTVSS
VL: not shown
notes: as for B5

binding result [9]: binds
binding result [10]: binds
B10: TMEL1031 (antibody, V domains shown)
VH: EVQLVESGGGLVQPGGSLRLSCAASGFTVSSNYMSWVRQAPGKGLEWVSVIYSGGSTYYADSVKGRFTISRDNSKNTLSLQMNSLRAEDTAVYYCARESSAAGYDYWGQGTLVTVSS
VL: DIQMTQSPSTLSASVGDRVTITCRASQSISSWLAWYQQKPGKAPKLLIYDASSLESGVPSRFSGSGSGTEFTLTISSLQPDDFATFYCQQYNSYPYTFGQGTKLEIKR
notes: as for B5

More lines, now with the values behind:

B1: TMEL1018 (antibody, V domains shown)
VH: PLQLQESGPGLVKPSETLSLTCTVSGGSISSSSYYWGWIRQPPGKGLEWIGSIYYSGSTYYNPSLKSRVTISVDTSKNQFSLKLSSVTAADTAVYSCARLLVGGAFDIWGQGTMVTVSS
VL: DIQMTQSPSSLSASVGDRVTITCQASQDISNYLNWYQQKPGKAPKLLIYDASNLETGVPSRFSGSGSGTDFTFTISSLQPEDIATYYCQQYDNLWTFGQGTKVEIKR
notes: as for B5
binding result (ubiquilin 2): binds
binding result [1]: binds
binding result (Ubiquilin 3): binds

B2: TMEL1030 (antibody, V domains shown)
VH: QVQLQESGPGLVKPSGTLSLTCAVSGGSISSSNCWSWVRQPPGKGLEWLGEICHSGSTSYNPSLKSRVTISVDKSKNQFSLKLRSVTAADTAVYYCARESPLTVVFDYWGQGTLVTVSS
VL: DIQMTQSPSSLSASVGDRVTITCRASQGIRNDLGWFQQKPGKAPKRLIYAASNLPSGVSSRFSGSGSGTEFTLTISSLQPEDFATYYCLQHNNYPLTFGQGTKVEFKR
notes: as for B5
binding result (Bcl2 like 1): binds

B3: TMEL1033 (antibody, V domains shown)
VH: PVQLQESGPGLVKPSETLSLTCTVSGGSVSSGSYYWSWIRQPPGKGLEWIGYIYYSGSTNYNPSLKSRVTISVDTSKNQFSLKLSSVTAADTAVYYCARDRGDYVTHWFDPWGQGTLVTVSS
VL: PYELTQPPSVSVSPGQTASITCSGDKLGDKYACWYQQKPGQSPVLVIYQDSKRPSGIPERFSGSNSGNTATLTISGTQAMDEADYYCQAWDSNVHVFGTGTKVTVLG
notes: as for B5
binding result (Zinc finger protein 699): binds
binding result [2]: binds
binding result (nudix hydrolase 21): binds

B4: TMEL1032 (antibody, V domains shown)
VH: QVQLVQSGAEVRKPGASVKVSCKASGYTFTTYYIHWVRQAPGQGLEWMGLINPNGGTTNYAQKFQGRLSMTTDTSTNTVYMELSSLRSEDTAVYYCARKLMSGIVSRGWFDPWGQGTLVTVSS
VL: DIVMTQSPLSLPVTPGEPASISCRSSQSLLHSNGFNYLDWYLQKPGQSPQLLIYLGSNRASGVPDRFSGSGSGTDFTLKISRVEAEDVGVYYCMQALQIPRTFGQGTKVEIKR
notes: as for B5
binding result [3]: binds
binding result [4]: binds

B7: TMEL1020 (antibody, V domains shown)
VH: QVHLVQSGAEVKKPGASVKVSCKASGYTFTNYFIHWVRQAPGQGPEWMGVINPSFGSTTYAQKLQGRVTMTRETSTSTVYMELSSLRSEDTAVYYCARESLDSASYSTIAHWGQGTLVTVSS
VL: EIVLAQSPGTLYLSPGERATLSCRASQSVRGNYLAWYQQRPGQAPRLLIYGASSRATGIPDRFGGSGSGTDFTLTITRLLPEDFAVYYCHQYGSSPRTFGQGTKVEIKR
notes: as for B5
binding result [7]: binds
